In US7098012:
Like-named read-outs stand apart in the source and are kept apart here.

Columns and labels:
[1] = system: DNA demethylase (DNA dMTase) purified from A549 nuclear extract (Homo sapiens); details: Km, 37 C, buffer L
[2] = system: DNA demethylase (DNA dMTase) purified from A549 nuclear extract (Homo sapiens); assay: inhibition; details: 5mC at CpG; oligonucleotide sequence only as image; preparation of enzyme not stated

“SssI-methylated pBluescript SK(+) plasmid” gave an activity ([1]; 5mC at all CpG, Vmax 40.42 pmol/h) of 3.3 nM.
In the case of “double stranded CmG oligonucleotide inhibitor”, the Ki [2] is reported as 50 nM.
fully methylated poly[mdCpdG]n was tested, and the activity ([1]; 5mC at all C of CpG, Vmax 340 pmol/h) was 2.5 nM.
With hemimethylated [dCpdG]n*[mdCpdG]n the activity ([1]; 5mC on one strand, Vmax 402 pmol/h) was 6 nM.
